The values below come from article PMC7397094.

Where two headings read alike, the source gives them in different places. Where only a bound is given, the exact number is not on record here.

Assay [1] concerns the target human recombinant RetGC1 (retinal membrane guanylyl cyclase 1) (human) (UniProt Q02846).
The target is the same in assay [2]. The source holds these as a separate data set.
For assay [3] the target is unchanged. This is another data set of the same source.
Assay [4] shares this target. This is another data set of the same source.

UniProt Q02846, sequence (Q02846 52-1103): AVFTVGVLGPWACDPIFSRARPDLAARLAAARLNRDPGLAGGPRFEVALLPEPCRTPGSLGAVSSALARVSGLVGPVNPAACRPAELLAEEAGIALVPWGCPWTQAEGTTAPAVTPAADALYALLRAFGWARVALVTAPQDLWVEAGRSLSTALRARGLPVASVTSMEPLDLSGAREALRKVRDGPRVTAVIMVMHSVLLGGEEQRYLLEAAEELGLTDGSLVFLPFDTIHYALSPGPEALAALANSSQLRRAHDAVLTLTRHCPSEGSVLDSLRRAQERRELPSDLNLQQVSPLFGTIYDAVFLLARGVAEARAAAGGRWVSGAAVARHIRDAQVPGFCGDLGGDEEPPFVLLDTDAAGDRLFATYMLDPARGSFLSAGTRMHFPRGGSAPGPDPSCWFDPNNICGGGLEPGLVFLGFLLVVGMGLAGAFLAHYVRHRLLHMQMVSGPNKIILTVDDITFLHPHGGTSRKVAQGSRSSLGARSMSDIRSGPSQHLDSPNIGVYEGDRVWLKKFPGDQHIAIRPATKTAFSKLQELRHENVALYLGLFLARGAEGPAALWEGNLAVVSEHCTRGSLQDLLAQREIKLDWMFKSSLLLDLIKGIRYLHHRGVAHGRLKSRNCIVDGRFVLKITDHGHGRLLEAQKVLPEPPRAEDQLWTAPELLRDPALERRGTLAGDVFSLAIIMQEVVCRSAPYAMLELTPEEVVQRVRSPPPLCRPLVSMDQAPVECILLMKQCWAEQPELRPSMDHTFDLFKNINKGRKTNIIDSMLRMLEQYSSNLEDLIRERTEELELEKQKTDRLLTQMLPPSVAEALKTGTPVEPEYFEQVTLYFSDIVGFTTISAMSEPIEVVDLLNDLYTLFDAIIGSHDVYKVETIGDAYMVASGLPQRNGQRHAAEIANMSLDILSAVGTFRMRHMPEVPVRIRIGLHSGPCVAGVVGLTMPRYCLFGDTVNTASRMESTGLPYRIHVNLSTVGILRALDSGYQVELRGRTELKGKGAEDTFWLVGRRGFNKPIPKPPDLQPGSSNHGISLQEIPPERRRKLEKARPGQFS

Regarding “RD3 P146ter (from UniProt Q7Z3Z2 1-145) (domain or fragment)”, the IC50 of inhibition of GCAP1-activated RetGC1 activity in assay [1] worked out at 3.4 nM. For the same substance, the RetGC1 activity left with 100 nM RD3, % of that without RD3 (1.5 uM GCAP1) in assay [2] came to 11.7%.
Consider “RD3 H89G (from UniProt Q7Z3Z2 1-195) (natural protein)”, for which, in assay [3], the IC50 of inhibition of GCAP1-activated RetGC1 activity came out at 10.6 nM. The RetGC1 activity left with 100 nM RD3, % of that without RD3 (1.5 uM GCAP1) in assay [2] is 13.2%.
For “RD3 R99E (from UniProt Q7Z3Z2 1-195) (natural protein)” the same measures were 35.5 nM and 27.1%.
For “RD3 R101A (from UniProt Q7Z3Z2 1-195) (natural protein)”, in assay [3], the IC50 of inhibition of GCAP1-activated RetGC1 activity stood at 261 nM. In addition, the RetGC1 activity left with 100 nM RD3, % of that without RD3 (1.5 uM GCAP1) in assay [2] worked out at 48%.
For “RD3 A105Y (from UniProt Q7Z3Z2 1-195) (natural protein)” the same measures were 16.7 nM and 17.9%.
Regarding “RD3 W62A/L63R (from UniProt Q7Z3Z2 1-195) (natural protein)”, in assay [4], the IC50 of inhibition of GCAP1-activated RetGC1 activity (empirical estimate) is greater than 10000 nM.
On to “RD3 Y60A (from UniProt Q7Z3Z2 1-195) (natural protein)”, for which, in assay [3], the IC50 of inhibition of GCAP1-activated RetGC1 activity amounted to 630 nM. Further, in assay [2], the RetGC1 activity left with 100 nM RD3, % of that without RD3 (1.5 uM GCAP1) was 65.3%.
The corresponding values for “RD3 Y92A (from UniProt Q7Z3Z2 1-195) (natural protein)” are 9.8 nM and 13.3%.
For “RD3 W62A (from UniProt Q7Z3Z2 1-195) (natural protein)” the same measures were 253 nM and 49.7%.
Take “RD3 Q102L (from UniProt Q7Z3Z2 1-195) (natural protein)”: the IC50 of inhibition of GCAP1-activated RetGC1 activity in assay [3] was found to be 59 nM. Moreover, the RetGC1 activity left with 100 nM RD3, % of that without RD3 (1.5 uM GCAP1) in assay [2] amounted to 28.5%.
“WT RD3 (retinal degeneration-3), bacterially expressed (from UniProt Q7Z3Z2 1-195) (natural protein)”: the IC50 of inhibition of GCAP1-activated RetGC1 activity in assay [3] was 3.6 nM. Further, the RetGC1 activity left with 100 nM RD3, % of that without RD3 (1.5 uM GCAP1) in assay [2] was found to be 11%.
For “RD3 S61Y (from UniProt Q7Z3Z2 1-195) (natural protein)” the same measures were 11.8 nM and 17.7%.
Take “RD3 D59R (from UniProt Q7Z3Z2 1-195) (natural protein)”: the IC50 of inhibition of GCAP1-activated RetGC1 activity in assay [3] was determined as 26.6 nM. Besides, the RetGC1 activity left with 100 nM RD3, % of that without RD3 (1.5 uM GCAP1) in assay [2] was 24.1%.
Regarding “RD3 W6L/W9L (from UniProt Q7Z3Z2 1-195) (natural protein)”, the IC50 of inhibition of GCAP1-activated RetGC1 activity in assay [1] stood at 4.5 nM. In assay [2], the RetGC1 activity left with 100 nM RD3, % of that without RD3 (1.5 uM GCAP1) was found to be 13.4%.
For the substance “RD3 E106K (from UniProt Q7Z3Z2 1-195) (natural protein)”, in assay [3], the IC50 of inhibition of GCAP1-activated RetGC1 activity stood at 13.5 nM. Also, the RetGC1 activity left with 100 nM RD3, % of that without RD3 (1.5 uM GCAP1) in assay [2] turned out to be 17.5%.
“RD3 R101A/Q102L (from UniProt Q7Z3Z2 1-195) (natural protein)”: the IC50 of inhibition of GCAP1-activated RetGC1 activity in assay [3] came out at 4460 nM.
With “RD3 L63R (from UniProt Q7Z3Z2 1-195) (natural protein)”, in assay [3], the IC50 of inhibition of GCAP1-activated RetGC1 activity is 882 nM. Besides, in assay [2], the RetGC1 activity left with 100 nM RD3, % of that without RD3 (1.5 uM GCAP1) was 82.8%.
For “RD3 R101E (from UniProt Q7Z3Z2 1-195) (natural protein)”, the IC50 of inhibition of GCAP1-activated RetGC1 activity in assay [3] turned out to be 135 nM. For the same substance, in assay [2], the RetGC1 activity left with 100 nM RD3, % of that without RD3 (1.5 uM GCAP1) turned out to be 37.9%.
As for “RD3 G94Y (from UniProt Q7Z3Z2 1-195) (natural protein)”, the IC50 of inhibition of GCAP1-activated RetGC1 activity in assay [3] was determined as 20.7 nM. In addition, the RetGC1 activity left with 100 nM RD3, % of that without RD3 (1.5 uM GCAP1) in assay [2] was determined as 22.5%.
For “RD3 S74R (from UniProt Q7Z3Z2 1-195) (natural protein)” the same measures were 15.6 nM and 15.5%.
Take “RD3 A105R (from UniProt Q7Z3Z2 1-195) (natural protein)”: the IC50 of inhibition of GCAP1-activated RetGC1 activity in assay [3] is 3.6 nM. Moreover, in assay [2], the RetGC1 activity left with 100 nM RD3, % of that without RD3 (1.5 uM GCAP1) was found to be 8.5%.
Regarding “RD3 S69Y (from UniProt Q7Z3Z2 1-195) (natural protein)”, the RetGC1 activity left with 100 nM RD3, % of that without RD3 (1.5 uM GCAP1) in assay [2] turned out to be 9%.
With “RD3 E27R (from UniProt Q7Z3Z2 1-195) (natural protein)”, the RetGC1 activity left with 100 nM RD3, % of that without RD3 (1.5 uM GCAP1) in assay [2] was determined as 6.6%.
